{"source": "patent US20020035736A1", "key": {"[1]": {"target": "native human HER2 (human) (UniProt P04626)", "assay": "cell-based or functional assay"}, "[2]": {"target": "native human HER2 (human) (UniProt P04626)", "assay": "inhibition of 125I-rHRGβ1 binding to MCF7 monolayers on ice; labeled ligand rHRGβ1"}}}
{"substance": "murine monoclonal antibody 2C4", "values": [{"measurement": "HRG stimulation of p180 tyrosine phosphorylation in MCF7 cells", "setting": "[1]", "value": "< 25 % of control"}, {"measurement": "maximum inhibition of HRG binding", "setting": "[2]", "value": 74, "unit": "%"}]}
{"substance": "murine monoclonal antibody 4D5", "values": [{"measurement": "inhibition of cell proliferation of SK-BR-3 cells (crystal violet)", "setting": "[1]", "value": 66, "unit": "%"}]}
